The text below walks through data of publication PMC11957692, “TRIB3 mediates vascular calcification by facilitating self-ubiquitination and dissociation of Smurf1 in chronic kidney disease” (The Journal of Clinical Investigation, 2025).

For orientation: Kd means the equilibrium constant for the complex coming apart. Broadly, the koff is a measure of how fast the partners let go of each other.

The target of assay [1] is T1, recombinant Smurf1 protein (UniProt Q9HCE7 1-757).
T1 construct: Smad ubiquitination regulatory factor 1 (Smurf1), recombinant protein immobilised on a CM5 chip for SPR; also called Smad ubiquitination regulatory factor 1; E3 ubiquitin-protein ligase Smurf1
In words: SPR; recombinant Smurf1 immobilised on a CM5 sensor chip by amine coupling; TRIB3 protein applied at 31 nM to 8 uM; Biacore T200, kinetics model. The settings on record: both partners purified.

The target in assay [2] is T2, recombinant Smurf1 protein (UniProt Q9HCE7 1-757).
T2 chain: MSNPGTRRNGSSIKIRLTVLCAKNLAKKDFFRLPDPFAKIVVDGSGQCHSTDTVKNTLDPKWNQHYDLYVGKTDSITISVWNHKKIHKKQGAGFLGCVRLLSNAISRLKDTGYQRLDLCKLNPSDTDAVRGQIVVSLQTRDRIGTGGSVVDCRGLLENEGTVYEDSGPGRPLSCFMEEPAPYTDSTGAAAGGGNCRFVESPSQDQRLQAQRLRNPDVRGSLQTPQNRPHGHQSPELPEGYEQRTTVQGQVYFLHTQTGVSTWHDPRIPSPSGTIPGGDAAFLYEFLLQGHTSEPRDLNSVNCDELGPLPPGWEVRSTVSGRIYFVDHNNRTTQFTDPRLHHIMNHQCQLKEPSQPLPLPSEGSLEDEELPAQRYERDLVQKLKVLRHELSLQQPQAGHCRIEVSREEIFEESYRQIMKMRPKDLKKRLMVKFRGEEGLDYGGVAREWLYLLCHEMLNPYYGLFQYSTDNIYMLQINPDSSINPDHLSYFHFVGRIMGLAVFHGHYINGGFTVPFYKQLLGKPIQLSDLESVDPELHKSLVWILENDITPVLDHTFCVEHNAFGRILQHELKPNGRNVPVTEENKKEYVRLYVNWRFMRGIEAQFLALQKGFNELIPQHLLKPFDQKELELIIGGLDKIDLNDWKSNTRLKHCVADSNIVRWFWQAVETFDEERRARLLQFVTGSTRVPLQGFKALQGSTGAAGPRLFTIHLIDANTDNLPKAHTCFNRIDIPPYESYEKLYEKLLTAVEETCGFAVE
As to the kind of experiment: SPR. (Surface plasmon resonance follows binding to a sensor surface in real time, without labels.)

B1: recombinant TRIB3 protein (natural protein, UniProt Q96RU7 1-358, looked up)
chain: MRATPLAAPAGSLSRKKRLELDDNLDTERPVQKRARSGPQPRLPPCLLPLSPPTAPDRATAVATASRLGPYVLLEPEEGGRAYQALHCPTGTEYTCKVYPVQEALAVLEPYARLPPHKHVARPTEVLAGTQLLYAFFTRTHGDMHSLVRSRHRIPEPEAAVLFRQMATALAHCHQHGLVLRDLKLCRFVFADRERKKLVLENLEDSCVLTGPDDSLWDKHACPAYVGPEILSSRASYSGKAADVWSLGVALFTMLAGHYPFQDSEPVLLFGKIRRGAYALPAGLSAPARCLVRCLLRREPAERLTATGILLHPWLRQDPMPLAPTRSHLWEAAQVVPDGLGLDEAREEEGDREVVLYG
notes: Tribbles homolog 3 (TRIB3), recombinant protein flowed over the chip in SPR; also called tribbles homolog 3
Consider B1, for which, in assay [1], the Kd amounted to 1030 nM. Moreover, in assay [2], the koff is 0.0015 s⁻¹.
